US20250283153 (published 2025)

Target: Thrombin (human alpha-thrombin) (Homo sapiens, UniProt P00734;P00734 P00734:328-363,P00734:364-622)
Experiment: nanopore without motor protein; lower-current events with increasing thrombin concentration

B1: 29-mer thrombin-binding aptamer (TBA) with 30xT threading strand (ssDNA)
DNA: TTTTTTTTTTTTTTTTTTTTTTTTTTTTTTAGTCCGTGGTAGGGCAGGTTGGGGTGACT
Does B1 bind?
Result: binds
